# Data reported in patent CN115611981A (GENOR BIOPHARMA CO LTD, dated 2023).
# B1: G-Ab1 (antibody, human IgG4 S228P, kappa, V domains shown)
# VH: QIQLVQSGSELKKPGASVKVSCKASGYTFTNFGMNWVRQAPGQGLKWMGWISGYTREPTYAADFKGRFVISLDTSVSTAYLQISSLKAEDTAVYYCARDVFDYWGQGTLVTVSS
# VL: DIVLTQSPASLAVSPGQRATITCRASESVDNYGYSFMNWFQQKPGQPPKLLIYRASNLESGVPARFSGSGSRTDFTLTINPVEADDTANYYCQQSNADPTFGQGTKLEIKR
# notes: The control used was an IgG4 isotype control; also called 抗PD-1抗体; G-Ab1抗体
# Target: T1, PD-1 (UniProt Q15116 25-288, limits assumed)
# T1 construct: whole, on cells; also called Jurkat/PD-1细胞表面的PD-1; Jurkat/PD1
# T1 sequence (Q15116 25-288 limits assumed): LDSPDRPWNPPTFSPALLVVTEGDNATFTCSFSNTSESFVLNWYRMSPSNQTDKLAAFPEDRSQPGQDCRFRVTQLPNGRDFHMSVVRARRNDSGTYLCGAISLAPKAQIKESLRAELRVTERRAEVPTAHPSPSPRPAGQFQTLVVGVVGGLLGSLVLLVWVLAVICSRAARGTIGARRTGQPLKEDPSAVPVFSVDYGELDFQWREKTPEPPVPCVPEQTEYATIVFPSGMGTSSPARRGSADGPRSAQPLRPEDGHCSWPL
# Test: Jurkat/PD-1 + CHO/PD-L1 NFAT-luciferase reporter blockade assay (binding inferred)
binder,measurement,value
B1,binding result,binds
